In patent US20210122785A1 (Bicycle, published 2021):
Starred links: 1 amine or outer side, 2 acyl side, 3 side chain; linkers in the order of their positions; H or OH if unused. Positions of bridges follow the written chain, without caps; N, C: chain ends. Non-standard residues stand in square brackets, D forms with d. No end group written: not given here. TBMB = c1c(C[*:1])cc(C[*:3])cc1C[*:2]; Dap(Me) = CNC[C@H](N)C(=O)O

B1: BCY00008654 (peptide)
peptide: Ac-A[Dap(Me)]PQDLEL[Dap(Me)]TFLFGD[Dap(Me)]A
modifications: linker 2-9-16 via TBMB
notes: Bicyclic peptide on a TBMB scaffold; all three cysteines of BCY00008655 replaced by Dap(Me); also called Ac-(28-06)(TBMB) Cys123Dap(Me)
B2: BCY00008648 (peptide)
peptide: Ac-A[Dap(Me)]PQDLELCTFLFGDCA
modifications: linker 2-9-16 via TBMB
notes: Bicyclic peptide on a TBMB scaffold; first cysteine of BCY00008655 replaced by Dap(Me); also called Ac-(28-06)(TBMB) Cys1Dap(Me)
B3: BCY00008651 (peptide)
peptide: Ac-A[Dap(Me)]PQDLEL[Dap(Me)]TFLFGDCA
modifications: linker 2-9-16 via TBMB
notes: Bicyclic peptide on a TBMB scaffold; first and second cysteines of BCY00008655 replaced by Dap(Me); also called Ac-(28-06)(TBMB) Cys12Dap(Me)
B4: BCY00008653 (peptide)
peptide: Ac-A[Dap(Me)]PQDLELCTFLFGD[Dap(Me)]A
modifications: linker 2-9-16 via TBMB
notes: Bicyclic peptide on a TBMB scaffold; first and third cysteines of BCY00008655 replaced by Dap(Me); also called Ac-(28-06)(TBMB) Cys13Dap(Me)
B5: BCY00008655 (peptide)
peptide: Ac-ACPQDLELCTFLFGDCA
modifications: linker 2-9-16 via TBMB
notes: Bicyclic peptide on a TBMB scaffold; also called Ac-(28-06)(TBMB)
B6: BCY00008649 (peptide)
peptide: Ac-ACPQDLEL[Dap(Me)]TFLFGDCA
modifications: linker 2-9-16 via TBMB
notes: Bicyclic peptide on a TBMB scaffold; second cysteine of BCY00008655 replaced by Dap(Me); also called Ac-(28-06)(TBMB) Cys2Dap(Me)

Biological target: T1, IL-17A (UniProt Q16552 24-155)
T1 construct: also called Interleukin-17
T1 sequence (looked up): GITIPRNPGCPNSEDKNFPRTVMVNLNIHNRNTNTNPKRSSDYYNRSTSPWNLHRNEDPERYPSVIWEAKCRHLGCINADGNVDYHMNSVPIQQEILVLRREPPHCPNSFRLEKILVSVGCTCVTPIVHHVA
Assay: IL-17A binding assay, method analogous to WO 2011/141823; replicate n2

B1 and B2 are within 1.5-fold of each other in Ki: 89.3 nM for the first, 105 nM for the second.

First: B3
Second: B4
The Ki of the first is 2.7-fold higher: 231 nM for the first, 85.9 nM for the second. The second binds more tightly here.

Going from B5 to B6, the Ki falls from 107 nM to 59.6 nM (1.8-fold).

Biological target: T1, IL-17A
Assay: IL-17A binding assay, method analogous to WO 2011/141823; replicate n1

B1 and B2 are within 1.5-fold of each other in Ki: 100 nM for the first, 127 nM for the second.

Going from B3 to B4, the Ki falls from 298 nM to 173 nM (1.7-fold).

B5 and B6 are within 1.5-fold of each other in Ki: 78.8 nM for the first, 60.8 nM for the second.

Biological target: T2, hIL17-F (human, UniProt Q96PD4 31-163)
T2 construct: also called human IL-17F
T2 sequence (looked up): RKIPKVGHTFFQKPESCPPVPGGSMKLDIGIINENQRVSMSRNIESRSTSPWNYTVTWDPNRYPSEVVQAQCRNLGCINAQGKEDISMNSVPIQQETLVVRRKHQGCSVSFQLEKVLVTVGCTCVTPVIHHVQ
Assay: IL-17 binding assay (Kd), as described in GB1720932.1

First: ACGYDYYCALYDICA (linker 2-8-14 via TBMB) [Reference Example A5, A-…-A]
Second: ACLWKDNCTHWSLCA (linker 2-8-14 via TBMB) [Reference Example A6, A-CLWKDNCTHWSLC-A]
The Kd of the first is 2-fold lower: 198 nM for the first, 392 nM for the second. The first binds more tightly here.

Biological target: T3, hIL17-A (human, UniProt Q16552 24-155)
T3 construct: also called human IL-17A
T3 sequence (looked up): T1 sequence (looked up)
Assay: as above

Work on CPENELYCFLSSQQC (linker 1-8-15 via TBMB) [Reference Example A2, CPENELYCFLSSQQC] yielded a Kd of 398 nM.

Biological target: T1, IL-17A
Assay: IL-17A binding assay, method analogous to WO 2011/141823; mean of n1 and n2

B1 and B2 are within 1.5-fold of each other in Ki: 94.7 nM for the first, 116 nM for the second.

First: B3
Second: B4
The Ki of the first is 2-fold higher: 264 nM for the first, 129 nM for the second.

First: B5
Second: B6
The Ki of the first is 1.5-fold higher: 93 nM for the first, 60.2 nM for the second. The second binds more tightly here.
